Reference: IntAct's records for PubMed 10069336

Key:
[1] = target: ena_drome ena (UniProt Q8T4F7)
[2] = target: abl_drome Abl (UniProt P00522)
Chain of UniProt P00522 (P00522 whole entry): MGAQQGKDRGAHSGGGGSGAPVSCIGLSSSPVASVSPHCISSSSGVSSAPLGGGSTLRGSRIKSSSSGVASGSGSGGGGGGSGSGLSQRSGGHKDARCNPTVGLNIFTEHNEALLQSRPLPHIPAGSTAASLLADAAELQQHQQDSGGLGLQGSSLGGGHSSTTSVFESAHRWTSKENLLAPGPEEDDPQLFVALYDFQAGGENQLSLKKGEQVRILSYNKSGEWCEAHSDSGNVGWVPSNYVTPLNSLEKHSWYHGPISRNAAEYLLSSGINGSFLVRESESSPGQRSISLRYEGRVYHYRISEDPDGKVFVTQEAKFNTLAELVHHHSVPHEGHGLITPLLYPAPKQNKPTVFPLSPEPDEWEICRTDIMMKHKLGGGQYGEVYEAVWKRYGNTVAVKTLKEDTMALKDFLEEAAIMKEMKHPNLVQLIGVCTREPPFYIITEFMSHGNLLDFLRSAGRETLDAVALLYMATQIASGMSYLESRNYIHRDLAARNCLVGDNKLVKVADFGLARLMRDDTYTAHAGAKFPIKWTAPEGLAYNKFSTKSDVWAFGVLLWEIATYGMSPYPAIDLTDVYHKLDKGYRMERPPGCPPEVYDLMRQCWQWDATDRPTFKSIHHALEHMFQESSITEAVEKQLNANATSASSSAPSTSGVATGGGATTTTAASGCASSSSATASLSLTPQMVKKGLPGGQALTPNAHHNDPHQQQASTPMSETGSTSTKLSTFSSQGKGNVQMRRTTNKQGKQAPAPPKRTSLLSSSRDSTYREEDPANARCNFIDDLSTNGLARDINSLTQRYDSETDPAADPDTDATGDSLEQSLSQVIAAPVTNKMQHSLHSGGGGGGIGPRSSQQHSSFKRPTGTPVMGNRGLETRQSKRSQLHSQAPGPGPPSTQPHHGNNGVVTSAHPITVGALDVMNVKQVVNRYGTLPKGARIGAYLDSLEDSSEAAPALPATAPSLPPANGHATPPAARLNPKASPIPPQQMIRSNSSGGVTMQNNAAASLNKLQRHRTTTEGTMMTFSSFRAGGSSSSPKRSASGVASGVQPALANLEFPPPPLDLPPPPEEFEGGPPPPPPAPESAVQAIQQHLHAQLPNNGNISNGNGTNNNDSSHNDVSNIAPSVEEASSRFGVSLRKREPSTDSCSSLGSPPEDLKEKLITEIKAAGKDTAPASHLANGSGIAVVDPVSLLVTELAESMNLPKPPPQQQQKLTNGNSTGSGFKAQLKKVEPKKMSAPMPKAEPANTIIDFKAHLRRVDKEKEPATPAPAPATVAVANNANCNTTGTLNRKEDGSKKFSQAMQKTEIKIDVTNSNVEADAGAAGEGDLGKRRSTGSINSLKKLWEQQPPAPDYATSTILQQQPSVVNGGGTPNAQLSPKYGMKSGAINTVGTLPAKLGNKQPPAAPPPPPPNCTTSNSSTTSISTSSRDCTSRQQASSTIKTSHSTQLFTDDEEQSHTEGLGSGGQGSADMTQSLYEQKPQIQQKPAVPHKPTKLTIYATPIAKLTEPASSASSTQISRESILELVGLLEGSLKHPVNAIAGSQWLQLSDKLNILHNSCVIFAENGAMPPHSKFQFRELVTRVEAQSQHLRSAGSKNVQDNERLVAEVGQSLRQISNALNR

Chain of UniProt Q8T4F7 (Q8T4F7 whole entry): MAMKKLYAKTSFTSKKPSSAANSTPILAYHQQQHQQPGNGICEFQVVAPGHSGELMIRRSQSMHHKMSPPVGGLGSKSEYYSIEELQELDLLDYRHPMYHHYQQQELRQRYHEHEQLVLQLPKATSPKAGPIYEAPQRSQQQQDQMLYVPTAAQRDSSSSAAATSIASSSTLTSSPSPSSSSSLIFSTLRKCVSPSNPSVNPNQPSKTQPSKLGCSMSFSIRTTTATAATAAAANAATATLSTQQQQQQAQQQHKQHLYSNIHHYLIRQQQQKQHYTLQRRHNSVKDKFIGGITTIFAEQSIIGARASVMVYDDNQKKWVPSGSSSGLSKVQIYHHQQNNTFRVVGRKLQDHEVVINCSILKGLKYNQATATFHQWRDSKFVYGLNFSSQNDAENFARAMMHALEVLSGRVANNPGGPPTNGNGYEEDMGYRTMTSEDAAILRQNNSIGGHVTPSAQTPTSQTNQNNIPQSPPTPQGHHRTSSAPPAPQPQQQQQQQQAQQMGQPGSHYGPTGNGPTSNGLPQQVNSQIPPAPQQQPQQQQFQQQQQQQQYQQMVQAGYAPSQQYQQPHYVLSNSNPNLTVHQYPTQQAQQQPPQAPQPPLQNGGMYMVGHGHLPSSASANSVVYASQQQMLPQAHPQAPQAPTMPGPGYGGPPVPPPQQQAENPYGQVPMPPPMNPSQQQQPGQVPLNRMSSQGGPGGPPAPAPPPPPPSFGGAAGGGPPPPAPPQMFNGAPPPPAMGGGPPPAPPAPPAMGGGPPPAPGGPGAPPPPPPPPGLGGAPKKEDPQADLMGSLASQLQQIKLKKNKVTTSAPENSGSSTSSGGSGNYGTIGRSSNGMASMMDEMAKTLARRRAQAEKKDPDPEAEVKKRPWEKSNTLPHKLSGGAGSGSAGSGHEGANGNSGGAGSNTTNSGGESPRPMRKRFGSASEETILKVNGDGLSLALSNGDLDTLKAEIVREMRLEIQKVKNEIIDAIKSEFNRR

effect of a mutation on the interaction [1]: decreasing interaction | effect of a mutation on the interaction [2]: decreasing interaction
Substance: Tyrosine-protein phosphatase Lar (Drosophila melanogaster (Fruit fly)), P16621 C1670S
